B1: ATXN2 peptide 913-928 (Ataxin-2), 16-mer library wild type / PABPC1 PABC (PABPC1 PABC domain, residues 544-623) (parent complex)
chain 1: TLNPNAKEFNPRSFSQ
chain 2: PLTASMLASAPPQEQKQMLGERLFPLIQAMHPTLAGKITGMLLEIDNSELLHMLESPESLRSKVDEAVAVLQAHQAKEAA
B2: SH3BP2 peptide 410-425 (SH3 domain-binding protein 2), 16-mer library wild type / TNKS ANK (TNKS 12 ANK repeats, residues 174-649) (parent complex)
chain 1: LPHLQRSPPDGQSFRS
chain 2: TGVPAVSGALRELLEACRNGDVSRVKRLVDAANVNAKDMAGRKSSPLHFAAGFGRKDVVEHLLQMGANVHARDDGGLIPLHNACSFGHAEVVSLLLCQGADPNARDNWNYTPLHEAAIKGKIDVCIVLLQHGADPNIRNTDGKSALDLADPSAKAVLTGEYKKDELLEAARSGNEEKLMALLTPLNVNCHASDGRKSTPLHLAAGYNRVRIVQLLLQHGADVHAKDKGGLVPLHNACSYGHYEVTELLLKHGACVNAMDLWQFTPLHEAASKNRVEVCSLLLSHGADPTLVNCHGKSAVDMAPTPELRERLTYEFKGHSLLQAAREADLAKVKKTLALEIINFKQPQSHETALHCAVASLHPKRKQVTELLLRKGANVNEKNKDFMTPLHVAAERAHNDVMEVLHKHGAKMNALDTLGQTALHRAALAGHLQTCRLLLSYGSDPSIISLQGFTAAQMGNEAVQQILSESTPIRTSD

The variants in one test derive from B1. The test is described as follows: proteomic peptide phage display deep mutational scan (ProP-PD DMS): M13 P8 16-mer library selected against immobilised GST-tagged bait for four days (rounds), NGS of the eluted pools per day and pseudo-replica; bait immobilised on MaxiSorp plates (10 µg), library pre-cleared on GST, 2 h binding at 4 °C, five washes; one round per day, days 1-4; value from days 2 and 3.
For chain 1 TLNPNADEFNPRSFSQ [chain 1 K7D], the screen value is 0.00119 average fractional NGS count over selection days 2 and 3 (reads of this peptide / all reads for the bait, averaged over ….

In the case of chain 1 TLNPNAYEFNPRSFSQ [chain 1 K7Y], the screen value is 0.0438 average fractional NGS count over selection days 2 and 3 (reads of this peptide / all reads for the bait, averaged over …. As for chain 1 TLNPNAHEFNPRSFSQ [chain 1 K7H], the screen value is 0.0027 average fractional NGS count over selection days 2 and 3 (reads of this peptide / all reads for the bait, averaged over ….

For chain 1 TLNPNAGEFNPRSFSQ [chain 1 K7G], the screen value is 0.00102 average fractional NGS count over selection days 2 and 3 (reads of this peptide / all reads for the bait, averaged over …. In the case of chain 1 TLNPNAKEFNPDSFSQ [chain 1 R12D], the screen value is 0.00156 average fractional NGS count over selection days 2 and 3 (reads of this peptide / all reads for the bait, averaged over …. chain 1 TLNPNAKEFNPESFSQ [chain 1 R12E]: the screen value was 0.000493 average fractional NGS count over selection days 2 and 3 (reads of this peptide / all reads for the bait, averaged over …. On the same count and under the same terms, in the case of chain 1 TLNPNAKEFNPTSFSQ [chain 1 R12T] it was 0.00189 average fractional NGS count over selection days 2 and 3 (reads of this peptide / all reads for the bait, averaged over …. Consider chain 1 TLNPNAKEFNPVSFSQ [chain 1 R12V], for which the screen value was 0.00419 average fractional NGS count over selection days 2 and 3 (reads of this peptide / all reads for the bait, averaged over …. In the case of chain 1 TLNPNAKEFNPISFSQ [chain 1 R12I], the screen value is 0.00122 average fractional NGS count over selection days 2 and 3 (reads of this peptide / all reads for the bait, averaged over …. For chain 1 TLNPNAKEFNPGSFSQ [chain 1 R12G], the screen value was 0.000653 average fractional NGS count over selection days 2 and 3 (reads of this peptide / all reads for the bait, averaged over …. As to chain 1 TLNPNAKEFNPQSFSQ [chain 1 R12Q], the screen value is 0.000478 average fractional NGS count over selection days 2 and 3 (reads of this peptide / all reads for the bait, averaged over …. On to chain 1 TLNPNAKEFNPFSFSQ [chain 1 R12F], for which the screen value was 0.000951 average fractional NGS count over selection days 2 and 3 (reads of this peptide / all reads for the bait, averaged over …. The same measure, in the same setting: in the case of chain 1 TLNPNAKEFNPLSFSQ [chain 1 R12L] it was 0.000524 average fractional NGS count over selection days 2 and 3 (reads of this peptide / all reads for the bait, averaged over …. Turning to chain 1 TLNPNSKEFNPRSFSQ [chain 1 A6S], the screen value was 0.000246 average fractional NGS count over selection days 2 and 3 (reads of this peptide / all reads for the bait, averaged over ….

As for chain 1 TLNPNTKEFNPRSFSQ [chain 1 A6T], the screen value is 0.000787 average fractional NGS count over selection days 2 and 3 (reads of this peptide / all reads for the bait, averaged over ….

Regarding chain 1 TLNPAAKEFNPRSFSQ [chain 1 N5A], the screen value was 0.00056 average fractional NGS count over selection days 2 and 3 (reads of this peptide / all reads for the bait, averaged over …. In the case of chain 1 TLNPGAKEFNPRSFSQ [chain 1 N5G], the screen value is 0.00173 average fractional NGS count over selection days 2 and 3 (reads of this peptide / all reads for the bait, averaged over …. Regarding chain 1 TLNPDAKEFNPRSFSQ [chain 1 N5D], the screen value is 0.00049 average fractional NGS count over selection days 2 and 3 (reads of this peptide / all reads for the bait, averaged over …. The same measure, in the same setting: then chain 1 TLNPIAKEFNPRSFSQ [chain 1 N5I], with 0.00126 average fractional NGS count over selection days 2 and 3 (reads of this peptide / all reads for the bait, averaged over …; and chain 1 TLNPVAKEFNPRSFSQ [chain 1 N5V], with 0.0117 average fractional NGS count over selection days 2 and 3 (reads of this peptide / all reads for the bait, averaged over ….

For chain 1 TLNPMAKEFNPRSFSQ [chain 1 N5M], the screen value was 0.0888 average fractional NGS count over selection days 2 and 3 (reads of this peptide / all reads for the bait, averaged over …. Regarding chain 1 TLNPNAKEFNPRGFSQ [chain 1 S13G], the screen value was 0.00314 average fractional NGS count over selection days 2 and 3 (reads of this peptide / all reads for the bait, averaged over …. Regarding chain 1 TLNPNAKEFNPRQFSQ [chain 1 S13Q], the screen value was 0.000347 average fractional NGS count over selection days 2 and 3 (reads of this peptide / all reads for the bait, averaged over …. For the variant chain 1 TLNPNAKEFNPRNFSQ [chain 1 S13N], the screen value is 0.00133 average fractional NGS count over selection days 2 and 3 (reads of this peptide / all reads for the bait, averaged over ….

Turning to chain 1 TLNPNAKEFNPRDFSQ [chain 1 S13D], the screen value was 0.00111 average fractional NGS count over selection days 2 and 3 (reads of this peptide / all reads for the bait, averaged over …. chain 1 TLNPNAKEFNPRTFSQ [chain 1 S13T]: the screen value is 0.00197 average fractional NGS count over selection days 2 and 3 (reads of this peptide / all reads for the bait, averaged over ….

The variants in the next test derive from B2. The description is as above.
On to chain 1 LPHLQRYPPDGQSFRS [chain 1 S7Y], for which the screen value was 0.00213 average fractional NGS count over selection days 2 and 3 (reads of this peptide / all reads for the bait, averaged over …. For the variant chain 1 LPHLQRQPPDGQSFRS [chain 1 S7Q], the screen value was 0.00222 average fractional NGS count over selection days 2 and 3 (reads of this peptide / all reads for the bait, averaged over ….

Regarding chain 1 LTHLQRSPPDGQSFRS [chain 1 P2T], the screen value is 0.00034 average fractional NGS count over selection days 2 and 3 (reads of this peptide / all reads for the bait, averaged over …. The same measure, in the same setting: then chain 1 LPHLQRSPPDGQSERS [chain 1 F14E], with 0.00017 average fractional NGS count over selection days 2 and 3 (reads of this peptide / all reads for the bait, averaged over …; and chain 1 LPHLQRSPPDGQSNRS [chain 1 F14N], with 0.000125 average fractional NGS count over selection days 2 and 3 (reads of this peptide / all reads for the bait, averaged over …; and chain 1 LPHLQRSPPDGQSTRS [chain 1 F14T], with 0.0022 average fractional NGS count over selection days 2 and 3 (reads of this peptide / all reads for the bait, averaged over …. With chain 1 LPHLQRSPPDGQSIRS [chain 1 F14I], the screen value is 0.00763 average fractional NGS count over selection days 2 and 3 (reads of this peptide / all reads for the bait, averaged over ….

chain 1 LPHLQRSPPDGQSGRS [chain 1 F14G]: the screen value was 0.000932 average fractional NGS count over selection days 2 and 3 (reads of this peptide / all reads for the bait, averaged over ….

As to chain 1 LPHLQRSPPDGQSFWS [chain 1 R15W], the screen value is 0.000302 average fractional NGS count over selection days 2 and 3 (reads of this peptide / all reads for the bait, averaged over …. Regarding chain 1 LPHLQRSPPDGQSFSS [chain 1 R15S], the screen value was 0.00343 average fractional NGS count over selection days 2 and 3 (reads of this peptide / all reads for the bait, averaged over ….

Turning to chain 1 LPHLQRSPPDGQSFGS [chain 1 R15G], the screen value was 0.00618 average fractional NGS count over selection days 2 and 3 (reads of this peptide / all reads for the bait, averaged over …. Still for that read-out and setting: in the case of chain 1 LPHLQRSPPDGQSFHS [chain 1 R15H] it was 0.00172 average fractional NGS count over selection days 2 and 3 (reads of this peptide / all reads for the bait, averaged over …; in that of chain 1 LPHHQRSPPDGQSFRS [chain 1 L4H], 0.000978 average fractional NGS count over selection days 2 and 3 (reads of this peptide / all reads for the bait, averaged over …; in that of chain 1 LPHIQRSPPDGQSFRS [chain 1 L4I], 0.00171 average fractional NGS count over selection days 2 and 3 (reads of this peptide / all reads for the bait, averaged over …. For chain 1 LPHLQRSPPAGQSFRS [chain 1 D10A], the screen value is 0.000226 average fractional NGS count over selection days 2 and 3 (reads of this peptide / all reads for the bait, averaged over …. Consider chain 1 VPHLQRSPPDGQSFRS [chain 1 L1V], for which the screen value was 0.00338 average fractional NGS count over selection days 2 and 3 (reads of this peptide / all reads for the bait, averaged over ….

For the variant chain 1 YPHLQRSPPDGQSFRS [chain 1 L1Y], the screen value was 0.00138 average fractional NGS count over selection days 2 and 3 (reads of this peptide / all reads for the bait, averaged over …. In the case of chain 1 HPHLQRSPPDGQSFRS [chain 1 L1H], the screen value is 0.00559 average fractional NGS count over selection days 2 and 3 (reads of this peptide / all reads for the bait, averaged over …. Consider chain 1 NPHLQRSPPDGQSFRS [chain 1 L1N], for which the screen value was 0.0011 average fractional NGS count over selection days 2 and 3 (reads of this peptide / all reads for the bait, averaged over ….

In the case of chain 1 LPHLQRSPPDGWSFRS [chain 1 Q12W], the screen value is 0.000548 average fractional NGS count over selection days 2 and 3 (reads of this peptide / all reads for the bait, averaged over ….

Turning to chain 1 LPHLQRSPPDGSSFRS [chain 1 Q12S], the screen value was 0.000969 average fractional NGS count over selection days 2 and 3 (reads of this peptide / all reads for the bait, averaged over …. On the same count and under the same terms, in the case of chain 1 LPHLQRSPPDGFSFRS [chain 1 Q12F] it was 0.000426 average fractional NGS count over selection days 2 and 3 (reads of this peptide / all reads for the bait, averaged over …; in that of chain 1 LPHLQRSPPDGQEFRS [chain 1 S13E], 0.00174 average fractional NGS count over selection days 2 and 3 (reads of this peptide / all reads for the bait, averaged over …; in that of chain 1 LPHLQRSPPDGQIFRS [chain 1 S13I], 0.0065 average fractional NGS count over selection days 2 and 3 (reads of this peptide / all reads for the bait, averaged over …. Consider chain 1 LPHLQRSPPDGQAFRS [chain 1 S13A], for which the screen value was 0.000295 average fractional NGS count over selection days 2 and 3 (reads of this peptide / all reads for the bait, averaged over …. Consider chain 1 LPHLYRSPPDGQSFRS [chain 1 Q5Y], for which the screen value is 0.00141 average fractional NGS count over selection days 2 and 3 (reads of this peptide / all reads for the bait, averaged over …. chain 1 LPHLWRSPPDGQSFRS [chain 1 Q5W]: the screen value is 0.000468 average fractional NGS count over selection days 2 and 3 (reads of this peptide / all reads for the bait, averaged over …. As for chain 1 LPHLQRSPPDNQSFRS [chain 1 G11N], the screen value was 0.000201 average fractional NGS count over selection days 2 and 3 (reads of this peptide / all reads for the bait, averaged over ….

Regarding chain 1 LPWLQRSPPDGQSFRS [chain 1 H3W], the screen value is 0.000238 average fractional NGS count over selection days 2 and 3 (reads of this peptide / all reads for the bait, averaged over …. Regarding chain 1 LPILQRSPPDGQSFRS [chain 1 H3I], the screen value was 0.000522 average fractional NGS count over selection days 2 and 3 (reads of this peptide / all reads for the bait, averaged over ….
